Columns and labels:
[1] = target: T1, AVI-tagged DOK3(1–330 aa) (UniProt Q7L591 1-330); test: BLI
T1 sequence (looked up): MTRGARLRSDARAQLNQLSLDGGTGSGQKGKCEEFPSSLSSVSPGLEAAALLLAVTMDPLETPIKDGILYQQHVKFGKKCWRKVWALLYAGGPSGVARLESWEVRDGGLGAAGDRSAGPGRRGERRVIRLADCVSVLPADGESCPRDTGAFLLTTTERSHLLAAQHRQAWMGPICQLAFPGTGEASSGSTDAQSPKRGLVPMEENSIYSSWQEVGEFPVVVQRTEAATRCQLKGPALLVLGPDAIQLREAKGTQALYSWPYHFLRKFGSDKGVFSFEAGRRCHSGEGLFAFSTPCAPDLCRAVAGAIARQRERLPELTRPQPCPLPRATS

[2] = target: T1, AVI-tagged DOK3(1–330 aa); test: BLI; remark: listed apart in the source

KD with SAB [1]: 1.77 µM
Kd [2]: 15.5 µM
B1: His-PRDX1 recombinant protein (WT, 1-199 aa) (natural protein, UniProt Q06830 1-199, looked up)
chain: MSSGNAKIGHPAPNFKATAVMPDGQFKDISLSDYKGKYVVFFFYPLDFTFVCPTEIIAFSDRAEEFKKLNCQVIGASVDSHFCHLAWVNTPKKQGGLGPMNIPLVSDPKRTIAQDYGVLKADEGISFRGLFIIDDKGILRQITVNDLPVGRSVDETLRLVQAFQFTDKHGEVCPAGWKPGSDTIKPDVQKSKEYFSKQK

Reference: article PMC12399193 (Acta Pharmaceutica Sinica. B, 2025)
